Results on 16 substances are retold here after patent publication US20230038638A1, “COMPLEMENT FACTOR I-RELATED COMPOSITIONS AND METHODS” (published 2023).

Experiment [1] has as its target soluble human C3b (human) (UniProt P01024).
Experiment [2] has as its target T1, human C4b (human) (UniProt P0C0L4).
T1 sequence: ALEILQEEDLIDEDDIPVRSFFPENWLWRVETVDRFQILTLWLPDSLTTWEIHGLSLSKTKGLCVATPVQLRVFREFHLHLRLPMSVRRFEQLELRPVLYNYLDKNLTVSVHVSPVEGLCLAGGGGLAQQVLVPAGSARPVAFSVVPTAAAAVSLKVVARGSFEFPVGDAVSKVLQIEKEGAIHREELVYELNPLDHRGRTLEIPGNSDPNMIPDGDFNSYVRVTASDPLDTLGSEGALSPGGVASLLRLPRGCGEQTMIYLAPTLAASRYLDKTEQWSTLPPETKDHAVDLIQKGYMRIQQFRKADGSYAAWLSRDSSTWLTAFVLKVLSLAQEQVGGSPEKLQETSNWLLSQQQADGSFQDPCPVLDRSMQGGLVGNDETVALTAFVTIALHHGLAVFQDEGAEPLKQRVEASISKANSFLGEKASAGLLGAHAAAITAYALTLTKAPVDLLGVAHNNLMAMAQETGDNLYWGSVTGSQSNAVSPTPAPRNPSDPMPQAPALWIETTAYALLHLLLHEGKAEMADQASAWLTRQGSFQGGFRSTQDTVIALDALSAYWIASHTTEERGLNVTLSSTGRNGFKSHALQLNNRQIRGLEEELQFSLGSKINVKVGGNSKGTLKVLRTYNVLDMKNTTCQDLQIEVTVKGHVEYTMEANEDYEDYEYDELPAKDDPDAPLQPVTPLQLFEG

Experiment [3] deals with soluble human C3b (human) (UniProt P01024). The source holds these as a separate data set.
Experiment [4] concerns the target T1, human C4b (human). This is another data set of the same source.

Regarding CFI-HSA variant N531K (enzyme), the iC3b Screen Ref Fold (fold of reference) in experiment [1] was -0.01. Also, the C4b Screen Ref Fold (fold of reference) with human C4b (human) [2] came out at 3.03. In addition, the iC3b EC50 in experiment [3] came to 13 nM. The C4c EC50 (nM) in the experiment with human C4b (human) [4] amounted to 223 nM.
Taken in the same sequence, the figures for CFI-HSA variant N531L (enzyme) were 1.04, 3.47, 17.6 nM and 219 nM.
Consider CFI-HSA variant N531M (enzyme), for which, in experiment [1], the iC3b Screen Ref Fold (fold of reference) came out at 0. Besides, in the experiment with human C4b (human) [2], the C4b Screen Ref Fold (fold of reference) was 2.48. The iC3b EC50 in experiment [3] came to 21.2 nM. This substance also yielded a C4c EC50 (nM) with human C4b (human) [4] of 99.8 nM.
“CFI-HSA variant P558G; E457G; E461Q; N531G (enzyme)”: the iC3b Screen Ref Fold (fold of CFI-HSA wild type) in experiment [1] amounted to 1.87. The substance further gave a C4b Screen Ref Fold (fold of CFI-HSA wild type) in the experiment with human C4b (human) [2] of 3.97. In experiment [3], this substance yielded an iC3b EC50 of 5 nM. In addition, the C4c EC50 (nM) in the experiment with human C4b (human) [4] came out at 7.1 nM.
The matching figures for “CFI-HSA variant P558S; E457G; E461Q; N531G (enzyme)”: 1.89, 4.21, 4.3 nM and 7.2 nM.
CFI-HSA variant R456N (enzyme): the iC3b Screen Ref Fold (fold of reference) in experiment [1] came out at 0.56. Further, the C4b Screen Ref Fold (fold of reference) with human C4b (human) [2] is 0.19. This substance also gave an iC3b EC50 in experiment [3] of 60.5 nM. The substance further registered a C4c EC50 (nM) in the experiment with human C4b (human) [4] of 920 nM.
Turning to CFI-HSA variant T377G (enzyme), in experiment [1], the iC3b Screen Ref Fold (fold of reference) was 1.01. In the experiment with human C4b (human) [2], the C4b Screen Ref Fold (fold of reference) is 6.1. The same substance showed an iC3b EC50 in experiment [3] of 16.4 nM. In the experiment with human C4b (human) [4], this substance yielded a C4c EC50 (nM) of 147 nM.
In the case of “CFI-HSA variant T377G; E416A; K504H (enzyme)”, the iC3b Screen Ref Fold (fold of CFI-HSA wild type) in experiment [1] was 0.77. The same substance had a C4b Screen Ref Fold (fold of CFI-HSA wild type) with human C4b (human) [2] of 3.37. Further, in experiment [3], the iC3b EC50 came to 12 nM. This substance had a C4c EC50 (nM) in the experiment with human C4b (human) [4] of 47.8 nM.
Taken in the same sequence, the figures for “CFI-HSA variant T377G; E457G; E461Q; F464Y; N531G (enzyme)” were 2.12, 4.08, 3.4 nM and 23.3 nM.
The matching figures for “CFI-HSA variant T377G; E457G; E461Q; R462K; F464Y; N531G (enzyme)”: 2.05, 4.5, 4.2 nM and 3.5 nM.
Take CFI-HSA variant T377G; K504H (enzyme): the iC3b Screen Ref Fold (fold of CFI-HSA wild type) in experiment [1] came out at 0.95. Also, the C4b Screen Ref Fold (fold of CFI-HSA wild type) with human C4b (human) [2] turned out to be 3.01. Also, the iC3b EC50 in experiment [3] is 15.7 nM. For the same substance, the C4c EC50 (nM) with human C4b (human) [4] stood at 50.1 nM.
Taken in the same sequence, the figures for “CFI-HSA variant T377G; Y408L; E457G; E461Q; R462K; N531G (enzyme)” were 1.06, 3.44, 6.6 nM and 6.3 nM.
Consider CFI-HSA variant W381G (enzyme), for which the iC3b Screen Ref Fold (fold of reference) in experiment [1] worked out at 0. Further, the C4b Screen Ref Fold (fold of reference) with human C4b (human) [2] is 0.32. In experiment [3], this substance registered an iC3b EC50 of more than 500 nM. The C4c EC50 with human C4b (human) [4] is more than 1000 nM.
With CFI-HSA variant Y403F (enzyme), the iC3b Screen Ref Fold (fold of reference) in experiment [1] came to 0.41. The C4b Screen Ref Fold (fold of reference) with human C4b (human) [2] is 3.55. The same substance registered an iC3b EC50 in experiment [3] of 47.8 nM. Besides, in the experiment with human C4b (human) [4], the C4c EC50 (nM) was found to be 338 nM.
For the substance “CFI-HSA variant Y408F; E457G; E461Q; R462K; E530Y; N531G; P558S (enzyme)”, the iC3b Screen Ref Fold (fold of CFI-HSA wild type) in experiment [1] worked out at 2.21. The substance further yielded a C4b Screen Ref Fold (fold of CFI-HSA wild type) with human C4b (human) [2] of 4.41. This substance yielded an iC3b EC50 in experiment [3] of 5.1 nM. Besides, in the experiment with human C4b (human) [4], the C4c EC50 (nM) turned out to be 20.4 nM.
As for CFI-HSA variant Y408M (enzyme), the iC3b Screen Ref Fold (fold of reference) in experiment [1] was 1.21. In the experiment with human C4b (human) [2], the C4b Screen Ref Fold (fold of reference) was 0.17. Moreover, in experiment [3], the iC3b EC50 came out at 29.1 nM. In the experiment with human C4b (human) [4], this substance yielded a C4c EC50 (nM) of 930 nM.
